{
  "source": "patent US20240255509A1",
  "about": "“COMPOSITIONS AND METHODS RELATED TO K180 DIMETHYLATED H1.0 PROTEIN” (Aelan Cell Technologies, Inc., priority 2016, published 2024)",
  "molecules": {"B1": {"name": "G9A: recombinant G9A methyltransferase (NEB, M0235S) (protein, UniProt Q96KQ7 2-1210, looked up)", "Histone-lysine …": "AAAAGAAAAAAAEGEAPAEMGALLLEKETRGATERVHGSLGDTPRSEETLPKATPDSLEPAGPSSPASVTVTVGDEGADTPVGATPLIGDESENLEGDGDLRGGRILLGHATKSFPSSPSKGGSCPSRAKMSMTGAGKSPPSVQSLAMRLLSMPGAQGAAAAGSEPPPATTSPEGQPKVHRARKTMSKPGNGQPPVPEKRPPEIQHFRMSDDVHSLGKVTSDLAKRRKLNSGGGLSEELGSARRSGEVTLTKGDPGSLEEWETVVGDDFSLYYDSYSVDERVDSDSKSEVEALTEQLSEEEEEEEEEEEEEEEEEEEEEEEEDEESGNQSDRSGSSGRRKAKKKWRKDSPWVKPSRKRRKREPPRAKEPRGVNGVGSSGPSEYMEVPLGSLELPSEGTLSPNHAGVSNDTSSLETERGFEELPLCSCRMEAPKIDRISERAGHKCMATESVDGELSGCNAAILKRETMRPSSRVALMVLCETHRARMVKHHCCPGCGYFCTAGTFLECHPDFRVAHRFHKACVSQLNGMVFCPHCGEDASEAQEVTIPRGDGVTPPAGTAAPAPPPLSQDVPGRADTSQPSARMRGHGEPRRPPCDPLADTIDSSGPSLTLPNGGCLSAVGLPLGPGREALEKALVIQESERRKKLRFHPRQLYLSVKQGELQKVILMLLDNLDPNFQSDQQSKRTPLHAAAQKGSVEICHVLLQAGANINAVDKQQRTPLMEAVVNNHLEVARYMVQRGGCVYSKEEDGSTCLHHAAKIGNLEMVSLLLSTGQVDVNAQDSGGWTPIIWAAEHKHIEVIRMLLTRGADVTLTDNEENICLHWASFTGSAAIAEVLLNARCDLHAVNYHGDTPLHIAARESYHDCVLLFLSRGANPELRNKEGDTAWDLTPERSDVWFALQLNRKLRLGVGNRAIRTEKIICRDVARGYENVPIPCVNGVDGEPCPEDYKYISENCETSTMNIDRNITHLQHCTCVDDCSSSNCLCGQLSIRCWYDKDGRLLQEFNKIEPPLIFECNQACSCWRNCKNRVVQSGIKVRLQLYRTAKMGWGVRALQTIPQGTFICEYVGELISDAEADVREDDSYLFDLDNKDGEVYCIDARYYGNISRFINHLCDPNIIPVRVFMLHQDLRFPRIAFFSSRDIRTGEELGFDYGDRFWDIKSKYFTCQCGSEKCKHSAEAIALEQSRLARLDPHPELLPELGSLPPVNT"}},
  "assay_type_in_all_cases": "biochemical",
  "key": {"[1]": {"target": "T1, H1.0 peptide (Homo sapiens, UniProt P07305)", "T1 construct": "purchased ThermoFisher Scientific (peptide); NEB (G9A) M0235S (G9A)", "assay": "Radiolabel in vitro methylation assay with G9A", "conditions": "10 U G9A, 37° C. 1 hour, autoradiography", "protocol": "In order to visualize methylation of H1.0 peptide by G9A methyltransferase in vitro, a methylation assay was performed incorporating a radiolabelled methyl donor, which allows for visualization of methylated peptide on a gel after autoradiography exposure. The following methylation reaction was set up in a 1.5 ml tube: 1×HMT reaction buffer (50 mM Tris-HCl, 5 mM MgCl2, 4 mM dithiothreitol, pH 9.0), 10 U G9A Methyltransferase (NEB, M0235S, Lot #0031201), 3.2 mM Adenosyl-L-Methionine, S-[Methyl-3H] (Perkin Elmer, NET155H, Lot #1664720), 10 μg H1.0 peptide (ThermoFisher Scientific, Biotin-[…] (SEQ ID NO:75)), final volume 10 μl. A control reaction as above but without H1.0 peptide was also created. Reactions were incubated in a thermocycler at 37° C. for 1 hour. Reactions were stopped by incubating on ice for 5 minutes, and subsequently resolved on a 16.5% Tricine gel (BioRad, 4563063). Gels were soaked in 30% methanol, 5% glycerol for 30 minutes before vacuum drying at RT for 24 hours. Autoradiography analysis of dried gels with a phosphorimager (Molecular Dynamics) was then performed to assess effective methylation of H1.0 peptide with methyl-3H groups by the G9A methyltransferase.\nThe methylation reaction was subsequently resolved on a gel and visualized via autoradiography. […] A control reaction lacking H1.0 peptide yielded no tritium-labeled products."}, "[2]": {"target": "T2, recombinant human H1.0 protein (Homo sapiens, UniProt P07305)", "T2 construct": "full-length recombinant human H1.0 (NEB, M2501S); purchased NEB M2501S (H1.0); M0235S (G9A)", "assay": "In vitro methylation with G9A, products identified by LC-MS", "conditions": "1 μg full-length protein", "protocol": "(§1) In order to identify the precise sites of methylation by G9A and GLP methyltransferases on histone H1.0, in vitro methylation assays were performed and subsequently analyzed by Liquid Chromatography and High-resolution Mass Spectrometry (LC-MS) analysis. Methylation reactions were set up using either G9A methyltransferase (NEB, M0235S, Lot #0031201) or GLP methyltransferase (Cayman Chemical, 10755). The methyl donor in each reaction was unlabeled S-Adenosyl-L-Methionine (NEB, B9003S). […]\n(§2) For the Liquid Chromatography and High-resolution Mass Spectrometry (LC-MS) analysis, samples were prepared as described above and about 1 μg o the product was injected onto a Thermo Scientific Easy nLC system configured with a 10 cm×100 um trap column and a 25 cm×100 um ID resolving column. […] This ensured optimal full-scan data for quantification. […]\n(§3) Protein identification was performed using Thermo Scientific Proteome Discoverer version 1.4 (including Sequest and Percolator algorithms) using RefSeqHuman sequence database. […] Protein quantification was performed using Pinpoint version 1.4 software. The Pinpoint quantification workflow included importing the Proteome Discoverer .msf files as spectral libraries. Identified peptides were subsequently quantified in MS .raw files using the Pinpoint peak finding, chromatographic alignment and area calculation algorithms. […]"}, "[3]": {"target": "T3, K180me2 peptide (H1.0 AA 165-182) (Homo sapiens, UniProt P07305)", "T3 construct": "the K180me2 peptide (H1.0 AA 165-182) was used as a substrate; purchased ThermoFisher Scientific (peptide); NEB (G9A) M0235S (G9A)", "assay": "In vitro methylation with G9A, products identified by LC-MS", "conditions": "K180me2 peptide as substrate", "protocol": "In order to identify the precise sites of methylation by G9A and GLP methyltransferases on histone H1.0, in vitro methylation assays were performed and subsequently analyzed by Liquid Chromatography and High-resolution Mass Spectrometry (LC-MS) analysis. Methylation reactions were set up using either G9A methyltransferase (NEB, M0235S, Lot #0031201) or GLP methyltransferase (Cayman Chemical, 10755). The methyl donor in each reaction was unlabeled S-Adenosyl-L-Methionine (NEB, B9003S). The H1.0 substrate in each reaction was either unmodified H1.0 peptide labeled with biotin (ThermoFisher Scientific, Biotin-[…] (SEQ ID NO:75)), di-methylated H1.0 peptide (ThermoFisher Scientific, Biotin-[…]^(me2)PK (SEQ ID NO:76)), or full-length recombinant human H1.0 (NEB, M2501S). Methylation reactions were set up in triplicate for each condition as follows: 1×HMT reaction buffer (50 mM Tris-HCl, 5 mM MgCl2, 4 mM dithiothreitol, pH 9.0); 10 U G9A or GLP Methyltransferase; 3.2 mM S-Adenosyl-L-Methionine; 500 ng unmodified or modified H1.0 peptide, or 1 μg full-length protein; final volume 10 μl. As controls, reactions were set up as above but without any methyltransferase present. […]\nas §2, §3"}, "[4]": {"target": "T4, unmodified H1.0 peptide ([…] (SEQ ID NO:42)) (Homo sapiens, UniProt P07305)", "T4 construct": "purchased ThermoFisher Scientific (peptide); NEB (G9A) M0235S (G9A)", "assay": "In vitro methylation with G9A, products identified by LC-MS", "protocol": "as §1, §2, §3"}},
  "data": [
    {"molecule": "B1", "values": [
      {"measurement": "methylation of H1.0 peptide with tritium-labeled methyl groups (band at 4 kDa)", "setting": "[1]", "value": "capable of methylating H1.0 peptide"},
      {"measurement": "sites of methylation on full-length H1.0", "setting": "[2]", "value": "methylates C-terminal lysine residues, including H1.0K180me2"},
      {"measurement": "H1.0K166me1K180me2, % of the total peptide in the reaction", "setting": "[3]", "value": 1.27, "unit": "%"},
      {"measurement": "H1.0K174me1K180me3, % of the total peptide in the reaction", "setting": "[3]", "value": 1.06, "unit": "%"},
      {"measurement": "H1.0K174me3K175me3K177me1K180me2, % of the total peptide in the reaction", "setting": "[3]", "value": 0.35, "unit": "%"},
      {"measurement": "peptides dimethylated at H1.0K180, % of all peptides", "setting": "[4]; 10 U enzyme, 3.2 mM S-Adenosyl-L-Methionine, 37° C. 1 hour, spectral counts", "value": 99.9, "unit": "%"},
      {"measurement": "estimated methylation efficiency for K180 dimethylation", "setting": "[4]; other lysines (K166, K174, K175 or K177) not dimethylated", "value": "about 99%"}
    ]}
  ]
}
